B1: EM0005-86c (antibody, V domains shown)
VH: QVQLQQSGAELVRPGSSVKMSCKTSGYTFTTYGINWVKQRPGQGLEWIGYIYIGNGYTEYNEKFKGKATLTSDPSSRTAYMQLSSLTSEDSAIYFCARDLMVIAPKTMDYWGQGTSVTVSS
VL: DIQMNQSHKFMSTSVGDRVSITCKASQDVGTAVAWYQQKPGQSPKLLIYWASTRHTGVPDRFTGGGSGTDFTLTISNVQSEDLADYFCQQYSSYPYTFGGGTKLEMK
notes: Chimeric anti-PD-L1; captured on anti-human IgG Fc sensors
B2: HuEM1007-044-16 (antibody, human IgG1, kappa, L234A L235A, V domains shown)
VH: EVQLQQSGAEVKKPGSSVKVSCKASGHAFSSSWMNWVKQRPGKGLEWIGRIYPGDEITNYNAKFKDKATLTADKSTSTAYMELSSLRSEDTAVYYCARDLLMPYWGQGTLVTVSS
VL: DIVMTQTPLSLPVTPGEPASISCRSSKSLLYSNAITYLYWYLQKPGQSPQLLIYQMSNLAPGVPDRFSSSGSGTDFTLKISRVEAEDVGVYYCAQNLELPFTFGQGTKLEIKR
notes: Humanized anti-OX40, human IgG1 LALA / kappa; parental antibody of FIT1014-20a; also called HuEM1007-44-16; parental OX40 antibody

Experiments:
[1] = biological target: T1, recombinant human PD-L1/His fusion protein (Novoprotein, Cat. No. C315) (human, UniProt Q9NZQ7 19-239); assay: BLI (Octet RED96), antibody on AHC sensor, PD-L1/His as analyte, test group 1
T1 construct: also called recombinant human PD-L1-his protein
Source text: (§1) Based on titer and purity, 10 of the 50 humanized antibodies were selected and further assayed in two groups for dissociation rate constant (koff) as shown in Table 7. Chimeric antibody EM0005-86c having VH/VL sequences identical to EM0005-mAb86 (as provided in Table 6) was used as a positive control in each group and served as a basis for normalization. Briefly, antibodies were characterized for affinities and binding kinetics by Octet® RED96 biolayer interferometry (Pall FortéBio LLC). Anti-hIgG Fc Capture (AHC) Biosensors (Pall) with antibody captured at a concentration of 100 nM for 120 seconds were dipped into running buffer (1× pH 7.2 PBS, 0.05% Tween 20, 0.1% BSA) for 60 seconds to check the baseline, then dipped into a single concentration of recombinant human PD-L1/His fusion protein (Novoprotein, Cat. No. C315) to measure binding for 200 seconds, followed by dipped into running buffer to measure dissociation for 600 seconds. The association and dissociation curves were fitted to a 1:1 Langmuir binding model using FortéBio Data Analysis software (Pall). The off-rate ratios shown in Table 7 were calculated by off-rate of a humanized antibody to that of EM0005-86c in the same test group. The off-rate ratio serves as a normalized index, so that the humanized antibodies can be compared to one another across test groups. The lower off-rate ratio indicates higher affinity of an antibody for human PD-L1. HuEM0005-86-21 was selected for further investigation based on the purity and off-rate data.

[2] = biological target: T1, recombinant human PD-L1/His fusion …; assay: BLI (Octet RED96), antibody on AHC sensor, PD-L1/His as analyte, test group 2
Source text: as §1, with “The lower off-rate ratio indicates higher affinity of an antibody for human PD-L1. HuEM0005-86-21 was selected for further investigation based on the purity and off-rate data.” left out

[3] = biological target: T1, recombinant human PD-L1/His fusion …; assay: BLI (Octet RED96), antibody on AHC sensor, PD-L1/His as analyte, test group 1 (the reference itself)
Source text: as §1, with “The lower off-rate ratio indicates higher affinity of an antibody for human PD-L1. HuEM0005-86-21 was selected for further investigation based on the purity and off-rate data.” left out

[4] = biological target: T1, recombinant human PD-L1/His fusion …; assay: BLI (Octet RED96), antibody on AHC sensor, PD-L1/His as analyte, test group 2 (the reference itself)
Source text: as §1, with “The lower off-rate ratio indicates higher affinity of an antibody for human PD-L1. HuEM0005-86-21 was selected for further investigation based on the purity and off-rate data.” left out

[5] = biological target: T2, human OX40 on cells (CHO-K1-hOX40, CHO-OX40, Jurkat-OX40 reporter cells) (human, UniProt P43489 29-277); assay: FACS on human OX40 transfected CHO cells
T2 construct: also called human OX40-transfected CHO cell; CD134
T2 sequence: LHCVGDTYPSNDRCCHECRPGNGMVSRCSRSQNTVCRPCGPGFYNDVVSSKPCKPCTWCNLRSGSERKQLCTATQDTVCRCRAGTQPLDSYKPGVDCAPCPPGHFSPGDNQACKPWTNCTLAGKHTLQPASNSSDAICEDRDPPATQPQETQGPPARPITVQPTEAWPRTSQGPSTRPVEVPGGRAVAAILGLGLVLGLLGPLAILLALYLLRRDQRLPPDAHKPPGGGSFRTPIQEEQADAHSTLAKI
Experimental: Cell binding affinity of PD-L1/OX40 antibodies were measured against CHO (ATCC, #CCL-61) overexpressing human PD-L1 (CHO-PD-L1) and CHO overexpressing OX40 (CHO-OX40), respectively. Briefly, 5×10⁵ cells were seeded into each well of a 96-well plate (Corning, #3799). Cells were centrifuged at 400 g for 5 minutes and supernatants were discarded. For each well, 100 μl of 3× serial dilution of antibodies starting from 100 nM were then added and mixed with the cells. After 60 minutes of 4° C. incubation, plates were washed several times to remove excess antibodies. […] After another round of centrifugation and washing, cells were resuspended in FACS buffer for reading on a CytoFLEX Flow Cytometer (Beckman Coulter). Median Fluorescence Intensity (MFI) readouts were plotted against antibody concentration and analyzed with GraphPad Prism 8.0.

[6] = biological target: T3, recombinant human OX40/His fusion protein (Novoprotein, CB17) (human, UniProt P43489 29-216); assay: BLI (Octet RED96), antibody on AHC sensor, OX40/His as analyte, test group 4
T3 construct: Bought protein
T3 sequence: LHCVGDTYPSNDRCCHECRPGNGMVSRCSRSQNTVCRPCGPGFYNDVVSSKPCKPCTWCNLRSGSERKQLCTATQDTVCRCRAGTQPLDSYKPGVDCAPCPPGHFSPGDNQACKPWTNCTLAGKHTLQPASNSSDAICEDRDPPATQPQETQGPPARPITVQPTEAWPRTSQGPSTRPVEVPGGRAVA
Experimental: All 17 antibodies in Table 4 were expressed by transient transfection of HEK293 cell, purified by Protein A chromatography, and assayed for and ranked by dissociation rate constant (koff). Briefly, antibodies binding affinities and kinetics were characterized by Octet® RED96 biolayer interferometry (Pall FortéBio LLC). Antibodies were captured by Anti-hIgG Fc Capture (AHC) Biosensors (Pall) at a concentration of 100 nM for 120 seconds. After that, sensors were dipped into running buffer (1× pH 7.2 PBS, 0.05% Tween 20, 0.1% BSA) for 60 seconds to check the baseline, then dipped into recombinant human OX40/His fusion protein (Novoprotein, CB17) at assigned concentration for 200 seconds to measure binding, followed by dipped into running buffer for 600 seconds for dissociation. The assay was conducted in four test groups (as listed in Table 5) all containing the EM1007-044c chimeric antibody as the basis for normalization. The association and dissociation curves were fitted to a 1:1 Langmuir binding model using ForteBio Data Analysis software (Pall) to obtain the off-rate constants as shown in Table 5 below. The off-rate of each antibody was compared to that of the EM1007-mAb044c chimeric antibody in the same test group obtained in parallel to produce the corresponding off-rate ratio, serving as a normalized index. […]

[7] = biological target: T4, ΔCRD1-3 (human, UniProt P43489); assay: ELISA, OX40 variant coated at 1 µg/ml, HRP-labeled secondary antibody, OD 450 nm
T4 construct: extracellular domain without CRD1, CRD2 and CRD3 (CRD4 left); also called truncated OX40 variant lacking CRD1, CRD2 and CRD3
T4 sequence (truncated extracellular domain, looked up): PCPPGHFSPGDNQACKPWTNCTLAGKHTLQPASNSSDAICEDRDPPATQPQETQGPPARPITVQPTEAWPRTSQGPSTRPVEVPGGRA
Source text: The 4 cysteine rich domains (CRD) from OX40 extracellular domain were identified from UniProt (Identifier: P43489), and full length of extracellular OX40 (CRD1-4) and truncated OX40 variants ΔCRD1 (lacking CRD1), ΔCRD1-2 (lacking CRD1 and CRD2), ΔCRD1-3 (lacking CRD1, CRD2 and CRD3), mCRD1 (CRD1-4 with CRD1 domain therein replaced by murine CRD1), mCRD2 (CRD1-4 with CRD2 domain therein replaced by murine CRD2), mCRD3 (CRD1-4 with CRD3 domain therein replaced by murine CRD3), and mCRD4 (CRD1-4 with CRD4 domain therein replaced by murine CRD4) were synthesized by Biointron. The binding of HuEM1007-044-16, OX40-Tab1 (WO2015153513), OX40-Tab2 (WO2020151761) to OX40 or OX40 truncated proteins were analyzed using ELISA to identify the pertinent binding epitope. Briefly, OX40 variants were each coated at 1 μg/ml onto a 96 well plate (Corning, #3361) which was incubated overnight at 4° C., washed with PBS containing 0.05% Tween 20, blocked with blocking buffer (PBS containing 0.05% Tween 20 and 2% BSA) at 37° C. for 2 hours. On the coated and blocked plate, serially diluted antibodies were added and incubated at 37° C. for 1 hour, washed for 3 times, then added HRP-labeled secondary antibody. Tetramethylbenzidine (TMB) chromogenic solution was added for color development for 5 minutes then the reaction was quench with 1M HCl. Absorbance at 450 nm (OD450) was measured on a microplate reader.

T1 sequence (Q9NZQ7 19-239 limits assumed): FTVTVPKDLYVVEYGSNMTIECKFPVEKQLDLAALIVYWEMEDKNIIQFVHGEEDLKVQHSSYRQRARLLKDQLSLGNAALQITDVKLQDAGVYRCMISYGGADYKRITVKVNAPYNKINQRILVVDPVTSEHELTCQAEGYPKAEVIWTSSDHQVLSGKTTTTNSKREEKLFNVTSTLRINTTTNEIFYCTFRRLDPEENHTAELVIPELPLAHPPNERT

| Binder | koff [1] | koff [2] | Off-Rate Ratio to EM0005-86c [3] | Off-Rate Ratio to EM0005-86c [4] | EC50 [5] | Normalized Index (off-rate ratio to EM1007-mAb044c) [6] | koff [6] | binding result [7] |
| --- | --- | --- | --- | --- | --- | --- | --- | --- |
| B1 | 0.000272 s⁻¹ | 0.000146 s⁻¹ | 100% | 100% | – | – | – | – |
| B2 | – | – | – | – | 1.8 nM | 126% | 0.000352 s⁻¹ | no binding (tested: about 25 nM) |
